Data from article PMC7132122.

What was measured:
[1] = target: DHX15ΔN;NKRF G-patch V582G (Homo sapiens;Homo sapiens, UniProt O43143;O15226 113-795;541-603, |V582G); experiment: fluorescence polarization
DHX15ΔN;NKRF G-patch wt = DHX15ΔN;NKRF G-patch wt (Homo sapiens;Homo sapiens, UniProt O43143;O15226 113-795;541-603, |); experiment: fluorescence polarization
Chain of DHX15ΔN;NKRF G-patch wt (O43143 113-795, stated change not applied, chain 1 of 2): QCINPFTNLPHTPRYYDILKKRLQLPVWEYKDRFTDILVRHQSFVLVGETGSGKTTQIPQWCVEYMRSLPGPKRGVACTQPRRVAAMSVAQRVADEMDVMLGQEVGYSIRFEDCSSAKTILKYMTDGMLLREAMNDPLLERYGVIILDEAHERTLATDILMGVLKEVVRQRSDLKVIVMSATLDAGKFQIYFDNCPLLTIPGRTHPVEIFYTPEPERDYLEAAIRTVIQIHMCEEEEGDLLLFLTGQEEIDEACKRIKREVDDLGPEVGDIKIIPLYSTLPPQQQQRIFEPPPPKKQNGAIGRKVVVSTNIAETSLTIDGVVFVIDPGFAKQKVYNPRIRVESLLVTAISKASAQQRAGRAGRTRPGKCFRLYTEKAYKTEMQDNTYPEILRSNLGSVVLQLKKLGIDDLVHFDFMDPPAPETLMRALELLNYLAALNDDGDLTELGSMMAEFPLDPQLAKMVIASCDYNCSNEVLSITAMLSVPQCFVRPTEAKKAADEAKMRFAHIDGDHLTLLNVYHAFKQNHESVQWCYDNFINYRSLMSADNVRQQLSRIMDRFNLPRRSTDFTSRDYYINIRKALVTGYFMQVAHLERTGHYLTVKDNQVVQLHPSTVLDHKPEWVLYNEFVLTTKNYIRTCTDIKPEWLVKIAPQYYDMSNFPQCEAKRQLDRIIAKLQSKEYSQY
Chain of DHX15ΔN;NKRF G-patch wt (O15226 541-603, stated change not applied, chain 2 of 2): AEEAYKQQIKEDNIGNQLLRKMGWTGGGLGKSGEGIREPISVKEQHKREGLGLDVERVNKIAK

Chain of DHX15ΔN;NKRF G-patch V582G (O43143 113-795, chain 1 of 2): as the sequence (O43143 113-795, stated change not applied, chain 1 of 2) above
Chain of DHX15ΔN;NKRF G-patch V582G (O15226 541-603 V582G, chain 2 of 2): as the sequence (O15226 541-603, stated change not applied, chain 2 of 2) above, with V42G counted along it

## UUUUUUUUUUUU (ssRNA) [FAM-U12 RNA]
[1]
  binding signal: 1.2 fold increase of affinity
DHX15ΔN;NKRF G-patch wt
  binding signal: ~1 fold of Kd without nucleotide
